Test results as given in the RNAGym collection of RNA variant scans (doi:10.1093/nar/gkz1192).

B1: CPEB3 Ribozyme (parent)
chain: UAACAGGGGGCCACAGCAGAAGCGUUCACGUCGCAGCCCCUGUCAGAUUCUGGUGAAUCUGCGAAUUCUGCUGUAUAUCUC

Variants of: B1
Assay: self-cleavage, relative activity (ratio to wild type); higher = more cleavage; in vitro, sequencing
Procedure, shortened: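 Libraries of CPEB3 self-cleaving ribozyme mutants came from rounds of error-prone PCR and carried barcodes, which DNA sequencing matched to variants. In vitro transcription used T7 RNA polymerase at 37°C for 5 hours, with a further 15 min in DNase I before EDTA stopped the reaction; the ribozymes cleaved during both steps. The RNA was reverse transcribed with template switching and sequenced on Illumina. Relative activity is the cleaved/total read fraction of a variant divided by that of the unmutated ribozyme, averaged over three batches with at least 5 reads.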

Variant | self-cleavage
UAACAGGGGGCCACAGCAGAAGCGUUCACGUCGCAGCCCGUGUCAGAUUCUGGCGAAUCUGCGAAUUCUGCUGUAUAUCUC | 0.2
UAACAGGGGGCCACAGCAGAAGCGUUCACGUCGCAGCCCGUGUCAGAUUCUGGGGAAUCUGCGAAUUCUGCUGUAUAUCUC | 0.29
UAACAGGGGGCCACAGCAGAAGCGUUCACGUCGCAGCCCAUGUCAGAUUCUGGUGAAUCUGCAAAUUCUGCUGUAUAUCUC | 0.12
UAACAGGGGGCCACAGCAGAAGCGUUCACGUCGCAGCCCUUGUCUGAUUCUGGUGAAUCUGCGAAUUCUGCUGUAUAUCUC | 0.15
UAACAGGGGGCCACAGCAGAAGCGUUCACGUCGCAGCCCUUGUCCGAUUCUGGUGAAUCUGCGAAUUCUGCUGUAUAUCUC | 0.17
UAACAGGGGGCCACAGCAGAAGCGUUCACGUCGCAGCCCUUGUCGGAUUCUGGUGAAUCUGCGAAUUCUGCUGUAUAUCUC | 0.55
UAACAGGGGGCCACAGCAGAAGCGUUCACGUCGCAGCCCAUGUCAGGUUCUGGUGAAUCUGCGAAUUCUGCUGUAUAUCUC | 0.21
UAACAGGGGGCCACAGCAGAAGCGUUCACGUCGCAGCCCAUGUCAGCUUCUGGUGAAUCUGCGAAUUCUGCUGUAUAUCUC | 0.17
UAACAGGGGGCCACAGCAGAAGCGUUCACGUCGCAGCCCGUGUCAGAUUCUGGUGAAUCUGCGAAUUCUGCUGUAUAUCCC | 0.19
UAACAGGGGGCCACAGCAGAAGCGUUCACGUCGCAGCCCGUGUCAGAUUCUGGUGAAUCUGCGAAUUCUGCUGUAUAUCUC | 0.29
UAACAGGGGGCCACAGCAGAAGCGUUCACGUCGCAGCCCUUGUCAGAUUCUGGUGAAUCUGCGAAUUCUGCUGUAUAUCUC | 0.76
UAACAGGGGGCCACAGCAGAAGCGUUCACGUCGCAGCCCAUGUCAGAUUCUGGUGAAUCUGCGAAUUCUGCUGUAUAUCUG | 0.07
UAACAGGGGGCCACAGCAGAAGCGUUCACGUCGCAGCCCAUGUCAGACUCUGGUGAAUCUGCGAAUUCUGCUGUAUAUCUC | 0.18
UAACAGGGGGCCACAGCAGAAGCGUUCACGUCGCAGCCCAUGUCAGAAUCUGGUGAAUCUGCGAAUUCUGCUGUAUAUCUC | 0.15
UAACAGGGGGCCACAGCAGAAGCGUUCACGUCGCAGCCCUUGUCAGAUUCUGGUGCAUCUGCGAAUUCUGCUGUAUAUCUC | 0.32
UAACAGGGGGCCACAGCAGAAGCGUUCACGUCGCAGCCCGUGUCAGAUUCUGGUGAAUCUGCGAAUUCUGCCGUAUAUCUC | 0.48
UAACAGGGGGCCACAGCAGAAGCGUUCACGUCGCAGCCCGUGUCAGAUUCUGGUGAAUCUGCGAAUUCUGCGGUAUAUCUC | 0.16
UAACAGGGGGCCACAGCAGAAGCGUUCACGUCGCAGCCCAUGUCAGAUUCGGGUGAAUCUGCGAAUUCUGCUGUAUAUCUC | 0.25
UAACAGGGGGCCACAGCAGAAGCGUUCACGUCGCAGCCCAUGUCAGAUUCAGGUGAAUCUGCGAAUUCUGCUGUAUAUCUC | 0.33
UAACAGGGGGCCACAGCAGAAGCGUUCACGUCGCAGCCCAUGUCAGAUUCUGGUGAAUCUGCGAAUUCCGCUGUAUAUCUC | 0.25
UAACAGGGGGCCACAGCAGAAGCGUUCACGUCGCAGCCCAUGUCAGAUUCUGGUGAAUCUGCGAAUUCGGCUGUAUAUCUC | 0.11
UAACAGGGGGCCACAGCAGAAGCGUUCACGUCGCAGCCCAUGUCAGAUUCUGGUGAAUCUGCGGAUUCUGCUGUAUAUCUC | 0.12
UAACAGGGGGCCACAGCAGAAGCGUUCACGUCGCAGCCCAUUUCAGAUUCUGGUGAAUCUGCGAAUUCUGCUGUAUAUCUC | 0.31

Variant | self-cleavage
UAACAGGGGGCCACAGCAGAAGCGUUCACGUCGCAGCCCGAGUCAGAUUCUGGUGAAUCUGCGAAUUCUGCUGUAUAUCUC | 0.26
UAACAGGGGGCCACAGCAGAAGCGUUCACGUCGCAGCCCGGGUCAGAUUCUGGUGAAUCUGCGAAUUCUGCUGUAUAUCUC | 0.6
UAACAGGGGGCCACAGCAGAAGCGUUCACGUCGCAGCCCGCGUCAGAUUCUGGUGAAUCUGCGAAUUCUGCUGUAUAUCUC | 0.32
UAACAGGGGGCCACAGCAGAAGCGUUCACGUCGCAGCCCGUGUCAGAUUCUGGUGAAUCCGCGAAUUCUGCUGUAUAUCUC | 0.16
UAACAGGGGGCCACAGCAGAAGCGUUCACGUCGCAGCCCGUGUCAGAUUCUGGUGAAUCAGCGAAUUCUGCUGUAUAUCUC | 0.11
UAACAGGGGGCCACAGCAGAAGCGUUCACGUCGCAGCCCAUGUCAGAUUCUGGUGAAUCUGCGAAUUCUGCUGUAUACCUC | 0.18
UAACAGGGGGCCACAGCAGAAGCGUUCACGUCGCAGCCCAUGUCAGAUUCUGGUGAAUCUGCGAAUUCUGCUGUAUAACUC | 0.22
UAACAGGGGGCCACAGCAGAAGCGUUCACGUCGCAGCCCAUGUCAGAUUCUGGUGAAUCUGCGAAUUCUGCUGUAUGUCUC | 0.28
UAACAGGGGGCCACAGCAGAAGCGUUCACGUCGCAGCCCAUGUCAGAUUCUGGUGAAUCUGCGAAUUCUGCGGUAUAUCUC | 0.41
UAACAGGGGGCCACAGCAGAAGCGUUCACGUCGCAGCCCAUGUCAGAUUCUGGUGAAUCUGCGAAUUCUGCCGUAUAUCUC | 0.37
UAACAGGGGGCCACAGCAGAAGCGUUCACGUCGCAGCCCAUGUCAGAUUCUGGUGAAUCUGCGAACUCUGCUGUAUAUCUC | 0.18
UAACAGGGGGCCACAGCAGAAGCGUUCACGUCGCAGCCCAAGUCAGAUUCUGGUGAAUCUGCGAAUUCUGCUGUAUAUCUC | 0.1
UAACAGGGGGCCACAGCAGAAGCGUUCACGUCGCAGCCCACGUCAGAUUCUGGUGAAUCUGCGAAUUCUGCUGUAUAUCUC | 0.36
UAACAGGGGGCCACAGCAGAAGCGUUCACGUCGCAGCCCAUGUCAGAUUCUGGUGAAUCCGCGAAUUCUGCUGUAUAUCUC | 0.2
UAACAGGGGGCCACAGCAGAAGCGUUCACGUCGCAGCCCAUGUCAGAUUCUGGUGAAUCGGCGAAUUCUGCUGUAUAUCUC | 0.2
UAACAGGGGGCCACAGCAGAAGCGUUCACGUCGCAGCCCAUGUCAGAUUCUGGUGAAUCUGCGAAUUCUGCUGUAAAUCUC | 0.28
UAACAGGGGGCCACAGCAGAAGCGUUCACGUCGCAGCCCAUGUCAGAUUCUGGUGAAUCUGCGAAUUCUGCUGUACAUCUC | 0.38
UAACAGGGGGCCACAGCAGAAGCGUUCACGUCGCAGCCCGUGCCAGAUUCUGGUGAAUCUGCGAAUUCUGCUGUAUAUCUC | 0.16
UAACAGGGGGCCACAGCAGAAGCGUUCACGUCGCAGCCCAUGACAGAUUCUGGUGAAUCUGCGAAUUCUGCUGUAUAUCUC | 0.45
UAACAGGGGGCCACAGCAGAAGCGUUCACGUCGCAGCCCAUGCCAGAUUCUGGUGAAUCUGCGAAUUCUGCUGUAUAUCUC | 0.14
UAACAGGGGGCCACAGCAGAAGCGUUCACGUCGCAGCCCAUGUCAGAUUCUGGUGGAUCUGCGAAUUCUGCUGUAUAUCUC | 0.23
UAACAGGGGGCCACAGCAGAAGCGUUCACGUCGCAGCCCAUGUCAGAUUCUGGUGUAUCUGCGAAUUCUGCUGUAUAUCUC | 0.2
UAACAGGGGGCCACAGCAGAAGCGUUCACGUCGCAGCCCAUGUCAGAUACUGGUGAAUCUGCGAAUUCUGCUGUAUAUCUC | 0.18

Variant | self-cleavage
UAACAGGGGGCCACAGCAGAAGCGUUCACGUCGCAGCCCAUGUCAGAUUCUGGUGAAUCUGCGAAUCCUGCUGUAUAUCUC | 0.28
UAACAGGGGGCCACAGCAGAAGCGUUCACGUCGCAGCCCAUGUCAGAUUCUGGUGAAUCUGCGAGUUCUGCUGUAUAUCUC | 0.31
UAACAGGGGGCCACAGCAGAAGCGUUCACGUCGCAGCCCGUGUCAGAUUCUGGUGUAUCUGCGAAUUCUGCUGUAUAUCUC | 0.42
UAACAGGGGGCCACAGCAGAAGCGUUCACGUCGCAGCCCAUGUCAGAUUCUGGCGAAUCUGCGAAUUCUGCUGUAUAUCUC | 0.28
UAACAGGGGGCCACAGCAGAAGCGUUCACGUCGCAGCCCAUGUCAGAUUCUGGAGAAUCUGCGAAUUCUGCUGUAUAUCUC | 0.29
UAACAGGGGGCCACAGCAGAAGCGUUCACGUCGCAGCCCGUGUCAGAUUCUGGUGAAUCUGCGAAUUCUGCUGUAUACCUC | 0.38
UAACAGGGGGCCACAGCAGAAGCGUUCACGUCGCAGCCCGUGUCAGAUUCUGGUGAAUCUGCGAAUUCUGCUGUAUGUCUC | 0.08
UAACAGGGGGCCACAGCAGAAGCGUUCACGUCGCAGCCCAUGUCAGAUUCUGGUGAGUCUGCGAAUUCUGCUGUAUAUCUC | 0.22
UAACAGGGGGCCACAGCAGAAGCGUUCACGUCGCAGCCCGUGUCAGACUCUGGUGAAUCUGCGAAUUCUGCUGUAUAUCUC | 0.13
UAACAGGGGGCCACAGCAGAAGCGUUCACGUCGCAGCCCGUGUCAGAAUCUGGUGAAUCUGCGAAUUCUGCUGUAUAUCUC | 0.67
UAACAGGGGGCCACAGCAGAAGCGUUCACGUCGCAGCCCAUGUCAGAUUCUGGUGAAUCUGCGAAUUCUGCUGUAUAUCAC | 0.26
UAACAGGGGGCCACAGCAGAAGCGUUCACGUCGCAGCCCAUGUCAGAUUCUGGUGAAUCUGCGAAUUCUGCUGUAUAUCCC | 0.24
UAACAGGGGGCCACAGCAGAAGCGUUCACGUCGCAGCCCGUGUCAGAUUCUGGUGAAUCUGCGAGUUCUGCUGUAUAUCUC | 0.35
UAACAGGGGGCCACAGCAGAAGCGUUCACGUCGCAGCCCAUGUCAGAUUUUGGUGAAUCUGCGAAUUCUGCUGUAUAUCUC | 0.22
UAACAGGGGGCCACAGCAGAAGCGUUCACGUCGCAGCCCAUGUCAGAUUAUGGUGAAUCUGCGAAUUCUGCUGUAUAUCUC | 0.27
UAACAGGGGGCCACAGCAGAAGCGUUCACGUCGCAGCCCAUGUCAGAUUCUGGUGAAUCUGCGAAUUCUGCUGUGUAUCUC | 0.47
UAACAGGGGGCCACAGCAGAAGCGUUCACGUCGCAGCCCAUGUCAGAUUCUGGUGAAUCUGCGAAUUCUGCUGUUUAUCUC | 0.43
UAACAGGGGGCCACAGCAGAAGCGUUCACGUCGCAGCCCUUGUCAGGUUCUGGUGAAUCUGCGAAUUCUGCUGUAUAUCUC | 0.5
UAACAGGGGGCCACAGCAGAAGCGUUCACGUCGCAGCCCUUGUCAGUUUCUGGUGAAUCUGCGAAUUCUGCUGUAUAUCUC | 0.32
UAACAGGGGGCCACAGCAGAAGCGUUCACGUCGCAGCCCGUGUCAGAUUCUGGUGAAUCUGCGAACUCUGCUGUAUAUCUC | 0.22
UAACAGGGGGCCACAGCAGAAGCGUUCACGUCGCAGCCCAUGUCAGAUUCUGGUGAACCUGCGAAUUCUGCUGUAUAUCUC | 0.1
UAACAGGGGGCCACAGCAGAAGCGUUCACGUCGCAGCCCAUGUCAGAUUCUGGUGAAUCUGCGAAUUCUGCUGAAUAUCUC | 0.3
